Patent US20230346885A1 (published 2023)
One block for each binder: values may come before it.

Experiments:
Test in all cases: binding, other
KLK4 peptide on HLA = molecular target: T1, KLK4 peptide on HLA (human)
T1 peptide: SIASQCPTA

NPSR1 peptide on HLA = molecular target: T2, NPSR1 peptide on HLA (human)
T2 peptide: AINPLIYCV

ASCL2 peptide on HLA = molecular target: T3, ASCL2 peptide on HLA (human)
T3 peptide: ALSPAERELL

XAGE1 peptide on HLA = molecular target: T4, XAGE1 peptide on HLA (human)
T4 peptide: ISQTPGINL

PAEP peptide on HLA [1] = molecular target: T5, PAEP peptide on HLA (human)
T5 peptide: LLDTDYDNFL

BRDT peptide on HLA = molecular target: T6, BRDT peptide on HLA (human)
T6 peptide: RLLDVNNQL

TRPM1 peptide on HLA [2] = molecular target: T7, TRPM1 peptide on HLA (human)
T7 peptide: RLGQGVPLV

LGSN peptide on HLA = molecular target: T8, LGSN peptide on HLA (human)
T8 peptide: ALGETFIRYFV

TRPM1 peptide on HLA [3] = molecular target: T9, TRPM1 peptide on HLA (human)
T9 peptide: RLLEKHISL

PAEP peptide on HLA [4] = molecular target: T10, PAEP peptide on HLA (human)
T10 peptide: MMCQYLARV

B1: TCR of SEQ ID NOs 403 and 404 (TCR, V domains shown)
Valpha: KQEVTQIPAALSVPEGENLVLNCSFTDSAIYNLQWFRQDPGKGLTSLLLIQSSQREQTSGRLNASLDKSSGRSTLYIAASQPGDSATYLCAVRPRGDSWGKLQFGAGTQVVVTP
Vbeta: NAGVTQTPKFQVLKTGQSMTLQCAQDMNHEYMSWYRQDPGMGLRLIHYSVGAGITDQGEVPNGYNVSRSTTEDFPLRLLSAAPSQTSVYFCASSPTGYGEAFFGQGTRLTVV
binding result (KLK4 peptide on HLA): recognises

B2: TCR of SEQ ID NOs 441 and 442 (TCR, V domains shown)
Valpha: QKEVEQNSGPLSVPEGAIASLNCTYSDRGSQSFFWYRQYSGKSPELIMSIYSNGDKEDGRFTAQLNKASQYVSLLIRDSQPSDSATYLCAVNDSGGYQKVTFGTGTKLQVIP
Vbeta: NAGVTQTPKFQVLKTGQSMTLQCAQDMNHEYMSWYRQDPGMGLRLIHYSVGAGITDQGEVPNGYNVSRSTTEDFPLRLLSAAPSQTSVYFCASSYSPGNGYTFGSGTRLTVV
binding result (NPSR1 peptide on HLA): recognises

B3: TCR of SEQ ID NOs 299 and 300 (TCR, V domains shown)
Valpha: QKEVEQNSGPLSVPEGAIASLNCTYSDRGSQSFFWYRQYSGKSPELIMSIYSNGDKEDGRFTAQLNKASQYVSLLIRDSQPSDSATYLCAVDTGRRALTFGSGTRLQVQP
Vbeta: NAGVTQTPKFQVLKTGQSMTLLCAQDMNHNSMYWYRQDPGMGLRLIYYSASEGTTDKGEVPNGYNVSRLNKREFSLRLESAAPSQTSVYFCASSVGGTYGYTFGSGTRLTVV
binding result (ASCL2 peptide on HLA): recognises

B4: TCR of SEQ ID NOs 301 and 302 (TCR, V domains shown)
Valpha: QKEVEQNSGPLSVPEGAIASLNCTYSDRGSQSFFWYRQYSGKSPELIMSIYSNGDKEDGRFTAQLNKASQYVSLLIRDSQPSDSATYLCAVDTGRRALTFGSGTRLQVQP
Vbeta: NAGVTQTPKFQVLKTGQSMTLQCAQDMNHNSMYWYRQDPGMGLRLIYYSASEGTTDKGEVPNGYNVSRLNKREFSLRLESAAPSQTSVYFCASSTGGSYGYTFGSGTRLTVV
binding result (ASCL2 peptide on HLA): recognises

B5: TCR of SEQ ID NOs 437 and 438 (TCR, V domains shown)
Valpha: QKEVEQNSGPLSVPEGAIASLNCTYSDRGSQSFFWYRQYSGKSPELIMSIYSNGDKEDGRFTAQLNKASQYVSLLIRDSQPSDSATYLCAVGGGADGLTFGKGTHLIIQP
Vbeta: NAGVTQTPKFRILKIGQSMTLQCTQDMNHNYMYWYRQDPGMGLKLIYYSVGAGITDKGEVPNGYNVSRSTTEDFPLRLELAAPSQTSVYFCASSYGNLGTEAFFGQGTRLTVV
binding result (NPSR1 peptide on HLA): recognises

B6: TCR of SEQ ID NOs 613 and 614 (TCR, V domains shown)
Valpha: QKEVEQNSGPLSVPEGAIASLNCTYSDRGSQSFFWYRQYSGKSPELIMSIYSNGDKEDGRFTAQLNKASQYVSLLIRDSQPSDSATYLCAVNEGYQKVTFGIGTKLQVIP
Vbeta: NAGVTQTPKFQVLKTGQSMTLQCAQDMNHEYMYWYRQDPGMGLRLIHYSVGAGITDQGEVPNGYNVSRSTTEDFPLRLLSAAPSQTSVYFCASSRDYDYGQYFGPGTRLTVT
binding result (XAGE1 peptide on HLA): recognises

B7: TCR of SEQ ID NOs 469 and 470 (TCR, V domains shown)
Valpha: QKEVEQNSGPLSVPEGAIASLNCTYSDRGSQSFFWYRQYSGKSPELIMSIYSNGDKEDGRFTAQLNKASQYVSLLIRDSQPSDSATYLCAVRRNTDKLIFGTGTRLQVFP
Vbeta: DTGVSQNPRHKITKRGQNVTFRCDPISEHNRLYWYRQTLGQGPEFLTYFQNEAQLEKSRLLSDRFSAERPKGSFSTLEIQRTEQGDSAMYLCASSPRDRSPYGYTFGSGTRLTVV
binding result (PAEP peptide on HLA [1]): recognises

B8: TCR of SEQ ID NOs 319 and 320 (TCR, V domains shown)
Valpha: KQEVTQIPVALSVPEGENLVLNCSFTDSAIYNLQWFRQDPGKGLTSLLLIQSSQREQTSGRLNASLDKSSGRSTLYIAASQPGDSATYLCAVKGGANNLFFGTGTRLTVIP
Vbeta: NAGVTQTPKFRILKIGQSMTLQCTQDMNHNYMYWYRQDPGMGLKLIYYSVGAGITDKGEVPNGYNVSRSTTEDFPLRLLSAAPSQTSVYFCASRGDGDRSPLHFGNGTRLTVT
binding result (BRDT peptide on HLA): recognises

B9: TCR of SEQ ID NOs 321 and 322 (TCR, V domains shown)
Valpha: KQEVTQIPAALSVPEGENLVLNCSFTDSAIYNLQWFRQDPGKGLTSLLLIQSSQREQTSGRLNASLDKSSGRSTLYIAASQPGDSATYLCAVRGGYQKVTFGTGTKLQVIP
Vbeta: NAGVTQTPKFQVLKTGQSMTLQCAQDMNHNSMYWYRQDPGMGLRLIHYSVGAGITDQGEVPNGYNVSRSTTEDFPLRLLSAAPSQTSVYFCASRGDGDRSPLHFGNGTRLTVT
binding result (BRDT peptide on HLA): recognises

B10: TCR of SEQ ID NOs 471 and 472 (TCR, V domains shown)
Valpha: KQEVTQIPAALSVPEGENLVLNCSFTDSAIYNLQWFRQDPGKGLTSLLLIQSSQREQTSGRLNASLDKSSGRSTLYIAASQPGDSATYLCAVSPINDYKLSFGAGTTVTVRA
Vbeta: KAGVTQTPRYLIKTRGQQVTLSCSPISGHRSVSWYQQTPGQGLQFLFEYFSETQRNKGNFPGRFSGRQFSNSRSEMNVSTLELGDSALYLCASSLVGTGGSPLHFGNGTRLTVT
binding result (PAEP peptide on HLA [1]): recognises

B11: TCR of SEQ ID NOs 599 and 600 (TCR, V domains shown)
Valpha: KQEVTQIPAALSVPEGENLVLNCSFTDSAIYNLQWFRQDPGKGLTSLLLIQSSQREQTSGRLNASLDKSSGRSTLYIAASQPGDSATYLCAVSGSWGKLQFGAGTQVVVTP
Vbeta: NAGVTQTPKFRVLKTGQSMTLLCAQDMNHEYMYWYRQDPGMGLRLIHYSVGEGTTAKGEVPDGYNVSRSTTEDFPLRLLSAAPSQTSVYFCASSLMDRPGEQFFGPGTRLTVL
binding result (TRPM1 peptide on HLA [2]): recognises

B12: TCR of SEQ ID NOs 603 and 604 (TCR, V domains shown)
Valpha: KQEVTQIPAALSVPEGENLVLNCSFTDSAIYNLQWFRQDPGKGLTSLLLIQSSQREQTSGRLNASLDKSSGRSTLYIAASQPGDSATYLCAVRDSWGKFQFGAGTQVVVTP
Vbeta: NAGVTQTPKFQVLKTGQSMTLQCAQDMNHNSMYWYRQDPGMGLRLIYYSASEGTTDKGEVPNGYNVSRLNKREFSLRLESAAPSQTSVYFCASSEWAWGLGTEAFFGQGTRLTVV
binding result (TRPM1 peptide on HLA [2]): recognises

B13: TCR of SEQ ID NOs 601 and 602 (TCR, V domains shown)
Valpha: KQEVTQIPAALSVPEGENLVLNCSFTDSAIYNLQWFRQDPGKGLTSLLLIQSSQREQTSGRLNASLDKSSGRSTLYIAASQPGDSATYLCAVTDSWGKLQFGAGTQVVVTP
Vbeta: NAGVTQTPKFRVLKTGQSMTLLCAQDMNHEYMYWYRQDPGMGLRLIHYSVGEGTTAKGEVPDGYNVSRLKKQNFLLGLESAAPSQTSVYFCASSYADTYEQYFGPGTRLTVT
binding result (TRPM1 peptide on HLA [2]): recognises

B14: TCR of SEQ ID NOs 417 and 418 (TCR, V domains shown)
Valpha: KQEVTQIPAALSVPEGENLVLNCSFTDSAIYNLQWFRQDPGKGLTSLLLIQSSQREQTSGRLNASLDKSSGRSTLYIAASQPGDSATYLCAVRAQGGSEKLVFGKGTKLTVNP
Vbeta: NAGVTQTPKFRILKIGQSMTLQCTQDMNHNYMYWYRQDPGMGLKLIYYSVGAGITDKGEVPNGYNVSRSTTEDFPLRLELAAPSQTSVYFCASSYLGQDPEGAEAFFGQGTRLTVV
binding result (LGSN peptide on HLA): recognises

Continued, values first:

binding result (TRPM1 peptide on HLA [3]): recognises
B15: TCR of SEQ ID NOs 609 and 610 (TCR, V domains shown)
Valpha: KQEVTQIPAALSVPEGENLVLNCSFTDSAIYNLQWFRQDPGKGLTSLLLIQSSQREQTSGRLNASLDKSSGRSTLYIAASQPGDSATYLCAVPAQGGSEKLVFGKGTKLTVNP
Vbeta: NAGVTQTPKFQVLKTGQSMTLQCAQDMNHEYMSWYRQDPGMGLKLIYYSVGAGITDKGEVPNGYNVSRSTTEDFPLRLESAAPSQTSVYFCASTESPYYGYTFGSGTRLTVV

binding result (KLK4 peptide on HLA): recognises
B16: TCR of SEQ ID NOs 401 and 402 (TCR, V domains shown)
Valpha: KQEVTQIPAALSVPEGENLVLNCSFTDSAIYNLQWFRQDPGKGLTSLLLIQSSQREQTSGRLNASLDKSSGRSTLYIAASQPGDSATYLCAVSPPAAGNKLTFGGGTRVLVKP
Vbeta: NAGVTQTPKFRILKIGQSMTLQCAQDMNHNYMYWYRQDPGMGLKLIYYSVGAGITDKGEVPNGYNVSRSTTEDFPLRLELAAPSQTSVYFCASSLTWTGGFGYTFGSGTRLTVV

binding result (LGSN peptide on HLA): recognises
B17: TCR of SEQ ID NOs 415 and 416 (TCR, V domains shown)
Valpha: KQEVTQIPAALSVPEGENLVLNCSFTDSAIYNLQWFRQDPGKGLTSLLLIQSSQREQTSGRLNASLDKSSGRSTLYIAASQPGDSATYLCAVRGYQKVTFGTGTKLQVIP
Vbeta: NAGVTQTPKFQVLKTGQSMTLQCAQDMNHEYMSWYRQDPGMGLRLIHYSVGAGITDQGEVPNGYNVSRSTTEDFPLRLLSAAPSQTSVYFCASSPGIGELFFGEGSRLTVL

binding result (TRPM1 peptide on HLA [3]): recognises
B18: TCR of SEQ ID NOs 605 and 606 (TCR, V domains shown)
Valpha: KQEVTQIPAALSVPEGENLVLNCSFTDSAIYNLQWFRQDPGKGLTSLLLIQSSQREQTSGRLNASLDKSSGRSTLYIAASQPGDSATYLCAAATRNNTGKLIFGQGTTLQVKP
Vbeta: NAGVTQTPKFRILKIGQSMTLQCTQDMNHNYMYWYRQDPGMGLKLIYYSVGAGITDKGEVPNGYNVSRSTTEDFPLRLELAAPSQTSVYFCASSKSDLGGYTFGSGTRLTVV

binding result (XAGE1 peptide on HLA): recognises
B19: TCR of SEQ ID NOs 615 and 616 (TCR, V domains shown)
Valpha: QKEVEQNSGPLSVPEGAIASLSCTYSDRGSQSFFWYRQYSGKSPELIMSIYSNGDKEDGRFTAQLNKASQYVSLLIRDSQPSDSATYLCAVGAGGYNKLIFGAGTRLAVHP
Vbeta: NAGVTQTPKFRVLKTGQSMTLQCTQDMNHNYMYWYRQDPGMGLRLIHYSVGEGTTAKGEVPDGYNVSRSTTEDFPLRLLSAAPSQTSVYFCASRREGPLHFGNGTRLTVT

binding result (PAEP peptide on HLA [4]): recognises
B20: TCR of SEQ ID NOs 475 and 476 (TCR, V domains shown)
Valpha: QKEVEQNSGPLSVPEGAIASLNCTYSDRGSQSFFWYRQYSGKSPELIMFIYSNGDKEDGRFTAQLNKASQYVSLLIRDSQPSDSATYLCAVDGSYIPTFGRGTSLIVHP
Vbeta: NAGVTQTPKFRVLKTGQSMTLLCAQDMNHEYMYWYRQDPGMGLRLIHYSVGEGTTAKGEVPDGYNVSRLKKQNFLLGLESAAPSQTSVYFCASSSGGADTGELFFGEGSRLTVL

binding result (TRPM1 peptide on HLA [3]): recognises
B21: TCR of SEQ ID NOs 607 and 608 (TCR, V domains shown)
Valpha: KQEVTQIPAALSVPEGENLVLNCSFTDSAIYNLQWFRQDPGKGLTSLLLIQSSQREQTSGRLNASLDKSSGRSTLYIAASQPGDSATYLCAVRGMNTGFQKLVFGTGTRLLVSP
Vbeta: NAGVTQTPKFQVLKTGQSMTLQCAQDMNHEYMSWYRQDPGMGLRLIHYSVGAGITDQGEVPNGYNVSRSTTEDFPLRLLSAAPSQTSVYFCASSPGVTSTEAFFGQGTRLTVV
